The results in this text go back to PMC8113546.

Series [1] in a line: B7H3 IHC of 4T1 B7H3-WT tumours. Conditions: glycan changed form; control: PBS.
Series [2] is described as follows: flow cytometry of cell-surface B7H3, 4T1-B7H3KO. The following applies: glycan lost; control: B7H3-WT. For orientation: Flow cytometry measures light scatter and fluorescence of single cells or particles in a stream.
Series [3] in a line: flow cytometry of cell-surface B7H3. The following applies: glycan lost.
A short description of series [4]: IP of B7H3-WT-Flag, ubiquitin immunoblot. Conditions: glycan lost; control: untreated.
The nature of series [5]: CHX chase, remaining B7H3 by immunoblot (half-life). The following applies: glycan lost. In general terms: In western blotting, separated proteins are transferred to a membrane and probed.
Series [6] in a line: immunoblot, MDA-MB-231 and HCC1806. The following applies: glycan changed form; control: control sgRNA.
Series [7] can be described thus: flow cytometry of cell-surface B7H3, B7H3-WT cells. Conditions: glycan changed form; control: control sgRNA.
The nature of series [8]: flow cytometry of cell-surface B7H3, MDA-MB-231. The following applies: glycan changed form; control: untreated.

B1: mouse B7H3: 2F-Fuc (protein)
parent chain: MLRGWGGPSVGVCVRTALGVLCLCLTGAVEVQVSEDPVVALVDTDATLRCSFSPEPGFSLAQLNLIWQLTDTKQLVHSFTEGRDQGSAYSNRTALFPDLLVQGNASLRLQRVRVTDEGSYTCFVSIQDFDSAAVSLQVAAPYSKPSMTLEPNKDLRPGNMVTITCSSYQGYPEAEVFWKDGQGVPLTGNVTTSQMANERGLFDVHSVLRVVLGANGTYSCLVRNPVLQQDAHGSVTITGQPLTFPPEALWVTVGLSVCLVVLLVALAFVCWRKIKQSCEEENAGAEDQDGDGEGSKTALRPLKPSENKEDDGQEIA
In the case of B1, the expression_or_secretion result in series [1] is given as “decreases”.

B2: mouse B7H3: B7H3-4NQ (protein)
parent chain: B1 parent chain
For B2, the localisation_or_trafficking entry in series [2] is “abolishes”.

B3: B7H3: tunicamycin (TM) (protein)
parent chain: MLRRRGSPGMGVHVGAALGALWFCLTGALEVQVPEDPVVALVGTDATLCCSFSPEPGFSLAQLNLIWQLTDTKQLVHSFAEGQDQGSAYANRTALFPDLLAQGNASLRLQRVRVADEGSFTCFVSIRDFGSAAVSLQVAAPYSKPSMTLEPNKDLRPGDTVTITCSSYQGYPEAEVFWQDGQGVPLTGNVTTSQMANEQGLFDVHSILRVVLGANGTYSCLVRNPVLQQDAHSSVTITPQRSPTGAVEVQVPEDPVVALVGTDATLRCSFSPEPGFSLAQLNLIWQLTDTKQLVHSFTEGRDQGSAYANRTALFPDLLAQGNASLRLQRVRVADEGSFTCFVSIRDFGSAAVSLQVAAPYSKPSMTLEPNKDLRPGDTVTITCSSYRGYPEAEVFWQDGQGVPLTGNVTTSQMANEQGLFDVHSVLRVVLGANGTYSCLVRNPVLQQDAHGSVTITGQPMTFPPEALWVTVGLSVCLIALLVALAFVCWRKIKQSCEEENAGAEDQDGEGEGSKTALQPLKHSDSKEDDGQEIA
For B3, the localisation_or_trafficking entry in series [3] (control: untreated) is “decreases”. Further, the “other: K48 ubiquitination” value in series [4] is reported as “increases”. In series [5] (control: untreated), the degradation_or_half_life entry is “decreases”.

B4: B7H3: FUT8 knockout (protein)
parent chain: B3 parent chain
With B4, the expression_or_secretion result in series [6] is “decreases”. In addition, the localisation_or_trafficking entry in series [7] is reported as “decreases”.

B5: B7H3: B7H3-8NQ (protein)
parent chain: B3 parent chain
Regarding B5, the localisation_or_trafficking result in series [3] (control: B7H3-WT) is listed as “abolishes”. For the same protein, the degradation_or_half_life result in series [5] (control: B7H3-WT) is “decreases”.

B6: B7H3: 2F-Fuc (protein)
parent chain: B3 parent chain
As for B6, the localisation_or_trafficking result in series [8] is “decreases”.
